{
  "source": "patent US20230416330A1",
  "about": "“Optimized GIP Peptide Analogues” (Antag Therapeutics ApS, priority 2019, published 2023)",
  "biological_target": "T1, human GIP receptor (human, UniProt P48546 22-466)",
  "T1 sequence (looked up)": "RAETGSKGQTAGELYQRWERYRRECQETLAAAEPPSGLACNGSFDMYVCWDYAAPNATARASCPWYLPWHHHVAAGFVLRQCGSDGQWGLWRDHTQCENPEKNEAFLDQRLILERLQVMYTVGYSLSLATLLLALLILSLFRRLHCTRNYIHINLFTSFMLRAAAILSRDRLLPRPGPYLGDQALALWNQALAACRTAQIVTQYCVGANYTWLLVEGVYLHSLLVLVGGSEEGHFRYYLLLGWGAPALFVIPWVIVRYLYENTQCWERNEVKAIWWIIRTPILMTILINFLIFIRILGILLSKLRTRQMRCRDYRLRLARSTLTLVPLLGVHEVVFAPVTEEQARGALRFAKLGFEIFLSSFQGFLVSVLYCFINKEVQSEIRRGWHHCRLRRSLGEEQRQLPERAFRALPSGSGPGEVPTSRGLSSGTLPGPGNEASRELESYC",
  "test": "cell-based or functional assay",
  "note": "Starred links: 1 amine or outer side, 2 acyl side, 3 side chain; linkers in the order of their positions; H or OH if unused. Non-standard residues stand in square brackets, D forms with d. Groups on a side chain read outwards from the residue. No end group written: not given here. *: point of attachment. C18 diacid = O=C(O)CCCCCCCCCCCCCCCCC(=O)*; γGlu = O=C(O)[C@H](CCC(=O)[*:2])N[*:1]; Nle = CCCC[C@H](N)C(=O)O; AEEA = NCCOCCOCC(=O)O; Aib = CC(C)(N)C(=O)O",
  "data": [
    {"binder": "EGTFISDYSIALDKIK([AEEA-AEEA-γGlu-C18 diacid])QQDFVEWLLAQKPSSGAPPPS-OH (N-terminus assumed; SMILES CC[C@H](C)[C@H](NC(=O)[C@H](CO)NC(=O)[C@H](Cc1ccc(O)cc1)NC(=O)[C@H](CC(=O)O)NC(=O)[C@H](CO)NC(=O)[C@@H](NC(=O)[C@H](Cc1ccccc1)NC(=O)[C@@H](NC(=O)CNC(=O)[C@@H](N)CCC(=O)O)[C@@H](C)O)[C@@H](C)CC)C(=O)N[C@@H](C)C(=O)N[C@@H](CC(C)C)C(=O)N[C@@H](CC(=O)O)C(=O)N[C@@H](CCCCN)C(=O)N[C@H](C(=O)N[C@@H](CCCCNC(=O)COCCOCCNC(=O)COCCOCCNC(=O)CC[C@H](NC(=O)CCCCCCCCCCCCCCCCC(=O)O)C(=O)O)C(=O)N[C@@H](CCC(N)=O)C(=O)N[C@@H](CCC(N)=O)C(=O)N[C@@H](CC(=O)O)C(=O)N[C@@H](Cc1ccccc1)C(=O)N[C@H](C(=O)N[C@@H](CCC(=O)O)C(=O)N[C@@H](Cc1c[nH]c2ccccc12)C(=O)N[C@@H](CC(C)C)C(=O)N[C@@H](CC(C)C)C(=O)N[C@@H](C)C(=O)N[C@@H](CCC(N)=O)C(=O)N[C@@H](CCCCN)C(=O)N1CCC[C@H]1C(=O)N[C@@H](CO)C(=O)N[C@@H](CO)C(=O)NCC(=O)N[C@@H](C)C(=O)N1CCC[C@H]1C(=O)N1CCC[C@H]1C(=O)N1CCC[C@H]1C(=O)N[C@@H](CO)C(=O)O)C(C)C)[C@@H](C)CC)", "note": "[AT682]", "values": [
      {"measurement": "cAMP antagonism % inhib (CisBio assay)", "value": 89, "unit": "%"},
      {"measurement": "cAMP antagonism nM (IC50, CisBio assay)", "value": 13.6, "unit": "nM"},
      {"measurement": "cAMP antagonism pIC50 (CisBio assay)", "value": 7.9}
    ]},
    {"binder": "EGTFISEYSIALEKIK([AEEA-AEEA-γGlu-C18 diacid])QQEFVEWLLAQKPSSGAPPPS-OH (N-terminus assumed; SMILES CC[C@H](C)[C@H](NC(=O)[C@H](CO)NC(=O)[C@H](Cc1ccc(O)cc1)NC(=O)[C@H](CCC(=O)O)NC(=O)[C@H](CO)NC(=O)[C@@H](NC(=O)[C@H](Cc1ccccc1)NC(=O)[C@@H](NC(=O)CNC(=O)[C@@H](N)CCC(=O)O)[C@@H](C)O)[C@@H](C)CC)C(=O)N[C@@H](C)C(=O)N[C@@H](CC(C)C)C(=O)N[C@@H](CCC(=O)O)C(=O)N[C@@H](CCCCN)C(=O)N[C@H](C(=O)N[C@@H](CCCCNC(=O)COCCOCCNC(=O)COCCOCCNC(=O)CC[C@H](NC(=O)CCCCCCCCCCCCCCCCC(=O)O)C(=O)O)C(=O)N[C@@H](CCC(N)=O)C(=O)N[C@@H](CCC(N)=O)C(=O)N[C@@H](CCC(=O)O)C(=O)N[C@@H](Cc1ccccc1)C(=O)N[C@H](C(=O)N[C@@H](CCC(=O)O)C(=O)N[C@@H](Cc1c[nH]c2ccccc12)C(=O)N[C@@H](CC(C)C)C(=O)N[C@@H](CC(C)C)C(=O)N[C@@H](C)C(=O)N[C@@H](CCC(N)=O)C(=O)N[C@@H](CCCCN)C(=O)N1CCC[C@H]1C(=O)N[C@@H](CO)C(=O)N[C@@H](CO)C(=O)NCC(=O)N[C@@H](C)C(=O)N1CCC[C@H]1C(=O)N1CCC[C@H]1C(=O)N1CCC[C@H]1C(=O)N[C@@H](CO)C(=O)O)C(C)C)[C@@H](C)CC)", "note": "[AT693]", "values": [
      {"measurement": "cAMP antagonism % inhib (CisBio assay)", "value": 96, "unit": "%"},
      {"measurement": "cAMP antagonism nM (IC50, CisBio assay)", "value": 1.26, "unit": "nM"},
      {"measurement": "cAMP antagonism pIC50 (CisBio assay)", "value": 8.9}
    ]},
    {"binder": "EGTFISDYSIA[Nle]DKIK([AEEA-AEEA-γGlu-C18 diacid])QQDFVEWLLAQKPSSGAPPPS-OH", "note": "[AT683]", "values": [
      {"measurement": "cAMP antagonism % inhib (CisBio assay)", "value": 93, "unit": "%"},
      {"measurement": "cAMP antagonism nM (IC50, CisBio assay)", "value": 15.9, "unit": "nM"},
      {"measurement": "cAMP antagonism pIC50 (CisBio assay)", "value": 7.8}
    ]},
    {"binder": "EGTFISDYSI[Aib][Nle]DKIK([AEEA-AEEA-γGlu-C18 diacid])QQDFVEWLLAQKPSSGAPPPS-OH", "note": "[AT686]", "values": [
      {"measurement": "cAMP antagonism % inhib (CisBio assay)", "value": 82, "unit": "%"},
      {"measurement": "cAMP antagonism nM (IC50, CisBio assay)", "value": 3.42, "unit": "nM"},
      {"measurement": "cAMP antagonism pIC50 (CisBio assay)", "value": 8.5}
    ]},
    {"binder": "EGTFISDYSI[Aib]LDKIK([AEEA-AEEA-γGlu-C18 diacid])QQDFVEWLLAQKPSSGAPPPS-OH", "note": "[AT685]", "values": [
      {"measurement": "cAMP antagonism % inhib (CisBio assay)", "value": 83, "unit": "%"},
      {"measurement": "cAMP antagonism nM (IC50, CisBio assay)", "value": 2, "unit": "nM"},
      {"measurement": "cAMP antagonism pIC50 (CisBio assay)", "value": 8.7}
    ]}
  ]
}
